{"source": "the DeepSol protein solubility set", "data": [{"experiment": "soluble on expression in E. coli; label from the status in PepcDB or PDB records", "values": [{"sequence": "MSLKENKYDDKHFFEQYSQMPRSKEGLKAAGEWHELKKMLPDFNQKTVLDLGCGFGWHCIYAAEHGAKKVLGIDLSERMLTEAKRKTTSPVVCYEQKAIEDIAIEPDAYNVVLSSLALHYIASFDDICKKVYINLKSSGSFIFSVEHPVFTADGRQDWYTDETGNKLHWPVDRYFNESMRTSHFLGEDVQKYHRTVTTYIQTLLKNGFQINSVIEPEPAPELKDLPEMQDEYRRPMMLLISATKQEGHHHHHH", "soluble on expression in E. coli": "soluble"}, {"sequence": "HHYVKGELKIAASFTIGEYILPPLLAQLQKLYPELNLDVMIGNTEEVSERVRMLQADIGLIEGHTNENELEIEPFMEDEMCIAAPNQHPLAGRKEISISDLQNEAWVTREKGSGTREYLDHVLSSNGLRPKSMFTISSNQGVK", "soluble on expression in E. coli": "not soluble"}, {"sequence": "ATDTGGYAATAGGNVTGAVSKTATSMQDIVNIIDAARLDANGKKVKGGAYPLVITYTGNEDSLINAAAANICGQWSKDPRGVEIKEFTKGITIIGANGSSANFGIWIKKSSDVVVQNMRIGYLPGGAKDGDMIRVDDSPNVWVDHNELFAANHECDGTPDNDTTFESAVDIKGASNTVTVSYNYIHGVKKVGLDGSSSSDTGRNITYHHNYYNDVNAKLPLQRGGLVHAYNNLYTNITGSGLNVRQNGQALIENNWFEKAINPVTSRYDGKNFGTWVLKGNNITKPADFSTYSITWTADTKPYVNADSWTSTGTFPTVAYNYSPVSAQCVKDKLPGYAGVGKNLATLTSTACK", "soluble on expression in E. coli": "soluble"}, {"sequence": "MIPTERRQIILDMVAEKGIVSIAELTERMHVSHMTIRRDLQKLEQQGAVIQVSGGVQSSTRVAHEPSHQIKTELATPQKAAIGKLAASLVQPESCIYLDAGTTTLAIARQLVTMNKLTVVTNDFVIADYLMDNSNCTIIHTGGAVCRENRSCVGEAAATLLRGLMIDQAFISASSWSVRGISTPAEDKVTVKRAVASASRQKILVCDATKYGQVATWLALPLAEFNQIVTDDGLPESAIRALAKVDISLLMAKQLEHHHHHH", "soluble on expression in E. coli": "soluble"}, {"sequence": "MSAQKPGLHPRNRHQHRYDLAALCQTTPELTSFLIRTPAGEQSVDFANPQAVKALNKALLAHFYAVTHWDIPPGFLCPPVPGRADYIHHLADLLGETTGSIPAQATILDVGVGANCIYPLIGVHEYGWRFTGSEVSDAAMSSAQAIIQANTGLSRAIRLRRQKDPAAIFTGIIHKNEFYDATLCNPPFHDSAAAARAGSERKRRNLGQNKDDALNFGGQQQELWCEGGEVAFIKKMIAESQSFRRQVLWFTTLVSRGENLPPLYRALTEAGAVKVVKKEMAQGQKQSRFIAWTFMDDDQRRRFITRKR", "soluble on expression in E. coli": "not soluble"}, {"sequence": "MSLTTQLGLPDDIQACLFDLDGVVTRTAVVHAAAWKATFDTFLRERDGADFRPFTDSDYDQYVDGRPRADGVRSFLASRGVELPEGTPDDPPDARTVNGVGNRKNELLLEKIRTDGVEPYEGTLRYIDAVRAAGLATAIVSSSANTRDVLRSIDAERLFDVRIDGVVARERKLPGKPHPDTFLAAARDLGVEASRAAVFEDALAGMDAGRSGHFGYVVGVDRVGQTDALYAHGADRVVKDLAELGDHAEGHHHHHH", "soluble on expression in E. coli": "soluble"}, {"sequence": "MGSDKIHHHHHHMRRVNRPAPLSERQYEYMQRCINSWFNVAEGGKRGGKNVLQTLIFCSLLETHKNKIHLVAGVSSATAKLNILDCDGYGLLNYFEGRCREGKYKDRDCVYVQTKTGEKIVLVSGGGKDGDEKLIKGNTYGMAYVTEANECHQKFLKEVFDRTLSSTDRKIFHDLNPKEEEHWYYTEILKFHEEQQANDENYGYNYGHFTLVDNMSMSDEKIRTVLKTYQKGTVWYKRDIKGERAVAEGIIFRKFKENNIPYLCDDSILKYNKDGELFPRPSKVIIGMDFGGNGSMTTMVCSLYFRGYHFIYPVEEDYLELSPDIDANNICDKYIEFYRRCAAKYERIDWTFPDSASTTMINSLRSAAKKDGLRYDHIAGCRKNEISERPRTVDLLLNTGRMKVHKRCVNLRKAIGTLKWDEKHPNIPEDKNIGNCNDWWDALCYTMLDFIEYIDLDR", "soluble on expression in E. coli": "not soluble"}, {"sequence": "SVLLQMTQRLALSDAHFRRICQLIYQRAGIVLADHKRDMVYNRLVRRLRALGLDDFGRYLSMLEANQNSAEWQAFINALTTNLTAFFREAHHFPILAEHARRRHGEYRVWSAAASTGEEPYSIAITLADALGMAPGRWKVFASDIDTEVLEKARSGIYRLSELKTLSPQQLQRYFMRGTGPHEGLVRVRQELANYVEFSSVNLLEKQYNVPGPFDAIFCRNVMIYFDKTTQEDILRRFVPLLKPDGLLFAGHSENFSNLVREFSLRGQTVYALS", "soluble on expression in E. coli": "soluble"}, {"sequence": "MVNQPLVSIIIPAYRAENTIAFTVRSVLAQTYDHWQVAIGVDDQVDYLQLLAEQGINDPRLKQVFTGGIGSGEAIARNKAVSICDGDILANLDADDAFASDRLEKLVPLAEKYGVAIDNTGVYNSELVLYKQPFPQRQALNFATAADILSPRIPFFPVFQRQLLGDGWTKVPFAADVLFNLELLSRTEKVAIHPEPLYRYYKRDNSITQSANAFETAEKAYLTILSLLDEGALTLTDAIRQAARQEFSENLALNKVFRRYMEEGRCQNLEQFLDMTNNGQKIEFVSNLNLEHHHHHH", "soluble on expression in E. coli": "soluble"}, {"sequence": "MKKLLSIVLGLALSAPVLANEVSFEQYVERLKQQAREEGISERILNEAFRDVEYKPRSVVADKNQPEKKLTLDEYIPRAVPEWKVKQAQSLYEKHYTELQRIGKQYGVQPRFIVALWGVESNFGAFTGNFRVIDALSTLAYEGRREEFFRKETMAALQILEQGHIAPEAMKGSWAGAMGQCQFMPSSFLNFAADGNGDGKKDIWGTRSDVFASTANYLSQSGWDDKYTWGRQVKIPKGFDHALEGRQPEKGKTLQEWSKLGVTRYDGKPLPALSDDIKAWLIMPDDEAGRIYLVYNNYNVLMKWNRSHYFALAVSHLADRIAF", "soluble on expression in E. coli": "not soluble"}, {"sequence": "MSTSSLRRQMKNIVHNYSEAEIKVREATSNDPWGPSSSLMSEIADLTYNVVAFSEIMSMIWKRLNDHGKNWRHVYKAMTLMEYLIKTGSERVSQQCKENMYAVQTLKDFQYVDRDGKDQGVNVREKAKQLVALLRDEDRLREERAHALKTKEKLAQTATASSAAVGSGPPPEAEQAWPQSSGEEELQLQLALAMSKEEADQEERIRRGDDLRLQMAIEESKRETGGKEESSLMDLADVFTAPAPAPTTDPWGGPAPMAAAVPTAAPTSDPWGGPPVPPAADPWGGPAPTPASGDPWRPAAPAGPSVDPWGGTPAPAAGEGPTPDPWGSSDGGVPVSGPSASDPWTPAPAFSDPWGGSPAKPSTNGTTAGGFDTEPDEFSDFDRLRTALPTSGSSAGELELLAGEVPARSPGAFDMSGVRGSLAEAVGSPPPAATPTPTPPTRKTPESFLGPNAALVDLDSLVSRPGPTPPGAKASNPFLPGGGPATGPSVTNPFQPAPPATLTLNQLRLSPVPPVPGAPPTYISPLGGGPGLPPMMPPGPPAPNTNPFLL", "soluble on expression in E. coli": "soluble"}, {"sequence": "MGSDKIHHHHHHMMPMDWEITFKGITYECINCAYCCSCKGWRIYLNYFDRLKLKDYEYAIEPCEGEFKYRLKVNEKGCVLLNNNLCRIHLEKGYEFKPLMCMIFPFSCMIKWDGTPLLIIKHYCSGIKKGKISKKVVNEAIELIKELYFDMFEEIIENGMEHSSKTEIFENFRVDWEEREDFGRYIFSSKTFDEMFERCREIFGNKINKLNLEEIDEIKNNLQRYNTKENEEEILRYLLELNRREHFRKLPFYREVNKLINIGNYLTKYKNVFKGEGEVDKKLFLNLK", "soluble on expression in E. coli": "not soluble"}, {"sequence": "MASKPLQFVVVERKLNVGKNAGKVMQIARPTGRHRVDFRSFCERVSKSTTFNRQEVEAVLNYATEIAKDIVSNGDIVEFGDLGTLMPSFKSKAVEQGVKFNANVHIEKPVVLFQPSKKYFTLTDVSYEQTTARPKKGTKPAPKPDTGSGGNSGEGI", "soluble on expression in E. coli": "not soluble"}, {"sequence": "SEKRFKVYVYEEGEPPLVHDGPCKSVYAVEGRFITEMEKRRTKFRTYDPNQAYVYFLPFSVTWLVRYLYEGNSDAKPLKTFVSDYIRLVSTNHPFWNRTNGADHFMLTCHDWGPLTSQANRDLFNTSIRVMCNANSSEGFNPTKDVTLPEIKLYGGEVDHKLRLSKTLSASPRPYLGFFAGGVHGPVRPILLKHWKQRDLDMPVYEYLPKHLNYYDFMRSSKFCFCPSGYEVASPRVIEAIYSECIPVILSVNFVLPFTDVLRWETFSVLVDVSEIPRLKEILMSISNEKYEWLKSNLRYVRRHFELNDPPQRFDAFHLTLHSIWLRRLNLKLT", "soluble on expression in E. coli": "soluble"}, {"sequence": "MAHHHHHHMNPMDALIARAAAEERQQAKMKQKSTRVSGESDLDHPSPSAAFPDSVISRGERASILCYVDPAATTTSSNFSVRRLRTFSACPTFKGGMIMRLTMCHDAQHLTVAFESGHIVLARYRDADVIDMADEPGEVCHAGGSMSVARVRNVTRAFADSALACWWSGRRMLACSSEGGMHCYDVSATAEGLLEAHLVWSVTLRKGIGSVFLQRNLVVAGCWDSTLRLYDARDGRLVSILSYQRETINEVRAAPPSIARVAAFGFDVRQPRLYAGQPGALSTKIPACIASNSKAVTQGNLPQFSESPLRETYVAGTPTPHSSSGSLAAEEQLVYLFASASKACTVALWRVDLGLVVEQTAREAIAAQTV", "soluble on expression in E. coli": "not soluble"}, {"sequence": "MGSDKIHHHHHHMKHIEDNAGSERKPLAGAAKSVPAVAADKPYHRKNLREDLLRSALELTVERDGPAFSLRELAMREKVSHTAVYRHFSDKASLFAELSSEGFRQLALYQNRTIEAPDLPPLARLEQMGATYVRFAMENVGFFRVMFDVNLAGEWEEARKGERTAFGNLVGLVRQCQSEGDIIDADPRAIATYLVLSPHGLAHFNNIGHLTHLLQTSMTLDQLATQVFRLTLAPFLTKPYSEQDVRALVNSIF", "soluble on expression in E. coli": "not soluble"}, {"sequence": "MIKQTIVALLLSVGASSVFAAGTVKVFSNGSSEAKTLTGAEHLIDLVGQPRLANSWWPGAVISEELATAAALRQQQALLTRLAEQGADSSADDAAAINALRQQIQALKVTGRQKINLDPDIVRVAERGNPPLQGNYTLWVGPPPSTVTLFGLISRPGKQPFTPGRDVASYLSDQSLLSGADRSYAWVVYPDGRTQKAPVAYWNKRHVEPMPGSIIYVGLADSVWSETPDALNADILQTLTQRIPQ", "soluble on expression in E. coli": "not soluble"}, {"sequence": "KGMIRPRGLNQQRYVKEVLSNDINFGIGPAGTGKTYLAVACAVDALEREQIRRILLVRPAVEAGEKLGFLPGDLAQKIDPYLRPLYDALYEMLGFEYVAKLIEKQVIEVAPLAYMRGRTLNNSFIILDESQNTTVEQMKMFLTRIGFGSTAVITGDITQVDLPKGTRSGLTHVIDVLKDVPGISFTHFKPKDVVRHPLVQRIVEAYERFDDQLSDGPSGNNG", "soluble on expression in E. coli": "soluble"}, {"sequence": "MAHHHHHHMRVLSLLSALCLVSTCRGHRNLFARNNYLQYLRSQNFMQEKPKFQKLNQNYSEDLNEFDNYEDDELDAENVEATSKERVTQKSGTSSSSSENKLEFKNIEKELNNMGEILHEEKDNLLLMGGGRECSVSDKGTLDVSLNSGDIFNLTKYTVEMSSSGILIRDTQNSNVVKEIAFDTVKLPIETIEETRECWKIRSHKETFLFCERSKEARDRWITNMLKALFCYNTNNLTIDEGVQTGLSSKVDIPKESTVDARIAASLKDEPNGSGDNSSHGRAKRKGNNNITISNLKNDKPEIVVN", "soluble on expression in E. coli": "not soluble"}, {"sequence": "MDKTVFQQDLAPYVKYSLNKKKRWETGNDKNYLSEVQKRYRGMDMFVIDRVRLNSSPYFCFISRENFFHNYFLQFPIRQLHQLNADNSYSYVYANQTYGQSYKSLQPENRSPSKSKSAKKPELYQNAKVAYHIITPPKNYEKLQAPKFCPGSSDRNLTHRTLTHWRRVKRMRDALLSLRYEKFEVLDEEVDMVDDYLIFDQYDPPRKLLV", "soluble on expression in E. coli": "not soluble"}]}]}
